Laboratory results reported in patent US20230183352A1 (published 2023).

Experiments:
[1] = target: T1, Claudin 18.2 (CLDN18.2), expressed on CHOS-CLDN 18.2 / HEK293-CLDN 18.2 / HCC827-CLDN 18.2 cells (human, UniProt P56856-2 1-261); test: FACS, CHOS-CLDN18.2 cells, 0.078 µg/ml
T1 construct: whole, on cells; The species is not repeated for the CHOS-CLDN 18.2 cells; also called claudin-18A2
Procedure: (§1) The initial concentration of the antibody was 20 μg/ml, it was diluted at 1:4, and incubated at 4° C. for 60 min.

[2] = target: T1, Claudin 18.2 (CLDN18.2), expressed on …; test: FACS, CHOS-CLDN18.2 cells, 0.005 µg/ml
Procedure: as §1

[3] = target: T1, Claudin 18.2 (CLDN18.2), expressed on …; test: FACS, CHOS-CLDN18.2 cells
Procedure: as §1

[4] = target: T1, Claudin 18.2 (CLDN18.2), expressed on …; test: cell-based or functional assay
[5] = target: T1, Claudin 18.2 (CLDN18.2), expressed on …; test: FACS, CHOS-CLDN18.2 cells, 0.020 µg/ml
Procedure: as §1

[6] = target: T1, Claudin 18.2 (CLDN18.2), expressed on …; test: FACS, CHOS-CLDN18.2 cells, 20 µg/ml
Procedure: as §1

[7] = target: T1, Claudin 18.2 (CLDN18.2), expressed on …; test: FACS, CHOS-CLDN18.2 cells, 0.020 µg/ml; remark: listed apart in the source
Procedure: as §1

[8] = target: T1, Claudin 18.2 (CLDN18.2), expressed on …; test: FACS, CHOS-CLDN18.2 cells, 0 µg/ml (background)
Procedure: as §1

[9] = target: T1, Claudin 18.2 (CLDN18.2), expressed on …; test: FACS, CHOS-CLDN18.2 cells, 0.078 µg/ml; remark: listed apart in the source
Procedure: as §1

[10] = target: T1, Claudin 18.2 (CLDN18.2), expressed on …; test: FACS, CHOS-CLDN18.2 cells, 0.005 µg/ml; remark: listed apart in the source
Procedure: as §1

[11] = target: T1, Claudin 18.2 (CLDN18.2), expressed on …; test: FACS, CHOS-CLDN18.2 cells, 0.313 µg/ml
Procedure: as §1

[12] = target: T1, Claudin 18.2 (CLDN18.2), expressed on …; test: FACS, CHOS-CLDN18.2 cells, 0.020 µg/ml; remark: listed apart in the source
Procedure: as §1

B1: QP024025 (antibody, human IgG1, V domains shown)
VH: QVQLQQPGAELVRPGASVKLSCKASGYTFTSYWINWVKQRPGQGLEWIGNIYPSDSYTNYNQKFKDKATLTVDKSSSTAYMQLSSPTSEDSAVYYCTRSWRGNSFDYWGQGTTLTVSS
VL: DIVMTQSPSSLTVTAGEKVTMSCKSSQSLLNSGNQKNYLTWYQQKPGQPPKLLIYWASTRESGVPDRFTGSGSGTDFTLTISSVQAEDLAVYYCQNDYSYPFTFGSGTKLEIK
notes: also called IMAB362; 175D10(IMAB362)
FACS reading [1]: 18200 | FACS reading [2]: 2830 | EC50 [3]: 0.27 mg/L | max [3]: 88600 | EC50 of killing, ADCC (PBMC, HEK293-CLDN18.2 cells) [4]: 0.0156 mg/L | Killing percentage, ADCC (PBMC, HEK293-CLDN18.2 cells), 0 µg/ml [4]: -1.33% | Killing percentage, ADCC (PBMC, HEK293-CLDN18.2 cells), 0.0001024 µg/ml [4]: -2.74% | Killing percentage, ADCC (PBMC, HEK293-CLDN18.2 cells), 0.000512 µg/ml [4]: 1.7% | Killing percentage, ADCC (PBMC, HEK293-CLDN18.2 cells), 0.00256 µg/ml [4]: 1.49% | Killing percentage, ADCC (PBMC, HEK293-CLDN18.2 cells), 0.0128 µg/ml [4]: 11% | Killing percentage, ADCC (PBMC, HEK293-CLDN18.2 cells), 0.064 µg/ml [4]: 22% | Killing percentage, ADCC (PBMC, HEK293-CLDN18.2 cells), 0.32 µg/ml [4]: 28.2% | Killing percentage, ADCC (PBMC, HEK293-CLDN18.2 cells), 1.6 µg/ml [4]: 30% | Killing percentage, ADCC (PBMC, HEK293-CLDN18.2 cells), 8 µg/ml [4]: 26.2% | Killing percentage, ADCC (PBMC, HEK293-CLDN18.2 cells), 40 µg/ml [4]: 21.6% | FACS reading [5]: 6950 | FACS reading [6]: 72300 | FACS reading [7]: 6950 | FACS reading [8]: 732 | FACS reading [9]: 18200 | FACS reading [10]: 2830 | FACS reading [11]: 51000 | FACS reading [12]: 6950
